Data reported in US20050063948A1 (published 2005).

Target: T1, αvβ3 integrin on the surface of M21 human melanoma cells (human, UniProt P06756 31-1048; P05106 27-788)
T1 construct: whole, on cells; also called αvβ3 integrin heterodimer
Assay: immunofluorescence on M21 cells, detected with anti-mouse IL-12 p40 antibody and FITC secondary
From the text: The specificity of mrIL-12vp binding to αᵥβ₃ integrin-positive cell lines was subsequently determined. M21, a human melanoma line which expresses αᵥβ₃ integrin on its surface (Felding-Habermann, et al. (1992) J. Clin. Invest. 89:2018-2022), was used as a αᵥβ₃ integrin-positive cell line for this analysis. Prior to the studies with mrIL-12vp, the expression of αᵥβ₃ integrin was confirmed based on intense labeling of M21 cells with the anti-αᵥβ₃ integrin antibody LM609 using flow cytometry. […] Immunofluorescence evaluation of cells grown on chamber slides confirmed specific binding of mrIL-12vp, but not mrIL-12 to M21 cells. There was no binding of mrIL-12 or mrIL-12vp to Saos-2 cells.
Immunofluorescence labeling was performed in accordance with standard methods (Teng, et al. (2002) Am. J. Physiol. Renal Physiol. 282:F1075-F1083). M21 or Saos-2 cells were incubated with 5 μg of either mrIL-12 or mrIL-12vp for 30 minutes at 37 C in a 5% CO₂ atmosphere. The cells were rinsed with PBS, and then fixed with freshly prepared 4% paraformaldehyde for 10 minutes at room temperature. Detection of mrIL-12 or mrIL-12vp binding to cells used an anti-mouse IL-12 p40 antibody, followed by three washes with PBS and incubation with FITC-conjugated goat anti-mouse IgG (1:200) for 1 hour in the dark. As a control, anti-mouse IL-12 p40 was omitted from the labeling process.

T1 sequence (P06756 31-1048, chain 1 of 2): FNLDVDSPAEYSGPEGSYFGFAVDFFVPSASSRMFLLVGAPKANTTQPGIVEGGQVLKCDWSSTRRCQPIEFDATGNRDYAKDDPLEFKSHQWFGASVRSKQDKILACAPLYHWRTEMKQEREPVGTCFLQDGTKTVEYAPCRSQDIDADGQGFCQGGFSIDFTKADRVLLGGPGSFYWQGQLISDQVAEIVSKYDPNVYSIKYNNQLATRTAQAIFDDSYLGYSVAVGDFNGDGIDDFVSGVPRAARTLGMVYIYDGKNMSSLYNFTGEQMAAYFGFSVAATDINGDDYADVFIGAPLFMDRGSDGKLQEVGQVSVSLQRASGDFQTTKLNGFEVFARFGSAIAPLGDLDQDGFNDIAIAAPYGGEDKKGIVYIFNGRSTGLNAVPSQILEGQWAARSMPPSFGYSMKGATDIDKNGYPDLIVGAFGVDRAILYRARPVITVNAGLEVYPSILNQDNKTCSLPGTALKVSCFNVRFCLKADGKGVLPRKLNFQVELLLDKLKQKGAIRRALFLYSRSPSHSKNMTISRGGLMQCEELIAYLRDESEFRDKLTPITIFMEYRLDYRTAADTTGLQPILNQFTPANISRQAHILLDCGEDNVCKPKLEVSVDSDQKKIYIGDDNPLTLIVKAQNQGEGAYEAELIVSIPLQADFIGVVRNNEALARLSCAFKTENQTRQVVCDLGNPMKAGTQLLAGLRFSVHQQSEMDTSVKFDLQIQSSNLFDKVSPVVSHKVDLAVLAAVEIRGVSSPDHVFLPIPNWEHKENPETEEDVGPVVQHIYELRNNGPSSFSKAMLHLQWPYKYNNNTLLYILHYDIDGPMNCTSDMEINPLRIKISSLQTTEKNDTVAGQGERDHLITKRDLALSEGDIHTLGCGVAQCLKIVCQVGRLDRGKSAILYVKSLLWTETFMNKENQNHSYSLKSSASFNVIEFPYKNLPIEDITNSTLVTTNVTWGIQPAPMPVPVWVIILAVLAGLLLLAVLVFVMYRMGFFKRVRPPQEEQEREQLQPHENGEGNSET
T1 sequence (P05106 27-788, chain 2 of 2): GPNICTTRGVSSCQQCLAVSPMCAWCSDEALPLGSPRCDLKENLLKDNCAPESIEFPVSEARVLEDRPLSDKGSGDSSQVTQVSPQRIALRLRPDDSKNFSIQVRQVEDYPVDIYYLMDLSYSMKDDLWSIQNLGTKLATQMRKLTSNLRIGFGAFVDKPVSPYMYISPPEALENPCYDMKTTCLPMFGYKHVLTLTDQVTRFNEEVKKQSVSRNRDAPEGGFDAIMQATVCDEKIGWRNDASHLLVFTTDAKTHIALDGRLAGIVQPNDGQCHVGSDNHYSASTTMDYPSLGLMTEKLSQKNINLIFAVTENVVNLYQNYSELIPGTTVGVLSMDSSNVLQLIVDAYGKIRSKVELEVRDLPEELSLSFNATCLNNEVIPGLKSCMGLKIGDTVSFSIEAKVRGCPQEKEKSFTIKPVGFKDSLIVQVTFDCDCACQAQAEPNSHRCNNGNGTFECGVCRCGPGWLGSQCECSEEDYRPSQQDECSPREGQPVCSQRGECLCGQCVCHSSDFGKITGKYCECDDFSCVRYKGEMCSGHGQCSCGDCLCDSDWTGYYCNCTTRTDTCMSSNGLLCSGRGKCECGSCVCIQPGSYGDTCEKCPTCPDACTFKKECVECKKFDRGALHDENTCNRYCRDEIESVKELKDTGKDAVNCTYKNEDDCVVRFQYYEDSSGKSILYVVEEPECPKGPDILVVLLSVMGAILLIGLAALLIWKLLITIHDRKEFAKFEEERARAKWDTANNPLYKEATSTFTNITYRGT

- binding result: no binding (tested: 5 µg)
B1: murine recombinant IL-12 (mrIL-12) (ligand, mouse)
chain 1: RVIPVSGPARCLSQSRNLLKTTDDMVKTAREKLKHYSCTAEDIDHEDITRDQTSTLKTCLPLELHKNESCLATRETSSTTRGSCLPPQKTSLMMTLCLGSIYEDLKMYQTEFQAINAALQNHNHQQIILDKGMLVAIDELMQSLNHNGETLRQKPPVGEADPYRVKMKLCILLHAFSTRVVTINRVMGYLSSA
chain 2: MWELEKDVYVVEVDWTPDAPGETVNLTCDTPEEDDITWTSDQRHGVIGSGKTLTITVKEFLDAGQYTCHKGGETLSHSHLLLHKKENGIWSTEILKNFKNKTFLKCEAPNYSGRFTCSWLVQRNMDLKFNIKSSSSSPDSRAVTCGMASLSAEKVTLDQRDYEKYSVSCQEDVTCPTAEETLPIELALEARQQNKYENYSTSFFIRDIIKPDPPKNLQMKPLKNSQVEVSWEYPDSWSTPHSYFSLKFFVRIQRKKEKMKETEEGCNQKGAFLVEKTSTEVQCKGGNVCVQAQDRYYNSSCSKWACVPCRVRS
notes: Bought
